pKd: −log10 of the molar value.
Key:
[1] = target: HapC(SCS) (Aspergillus nidulans); test: SDS-PAGE without reducing agent
[2] = target: HapC(SSC) (Aspergillus nidulans); test: SDS-PAGE without reducing agent
[3] = target: N-biotinylated HapB (Aspergillus nidulans); test: SPR
[4] = target: HapC(CSS) (Aspergillus nidulans); test: SDS-PAGE without reducing agent
[5] = target: HapC(CCS) (Aspergillus nidulans); test: SDS-PAGE without reducing agent
[6] = target: oxidized HapC (treated with diamide or H2O2) (Aspergillus nidulans); test: SDS-PAGE under non-reducing conditions
[7] = target: oxidized HapC(CCS) (treated with diamide or H2O2) (Aspergillus nidulans); test: SDS-PAGE under non-reducing conditions
[8] = target: HapC with cysteine 74 exchanged to serine (Aspergillus nidulans); test: SDS-PAGE without reducing agent
[9] = target: HapC with cysteine 78 exchanged to serine (Aspergillus nidulans); test: SDS-PAGE without reducing agent

HapC(SCS) (natural protein) gave a stoichiometry N [1] of 2.
In the case of HapC(SSC) (natural protein), the stoichiometry N [2] was 2.
“heterodimer of HapC with cysteine 78 exchanged to serine and HapE (complex)” gave a HapB binding affinity relative to the HapC/HapE heterodimer [3] of 50%.
HapC(CSS) (natural protein) showed a stoichiometry N [4] of 2.
HapC(CCS) (natural protein) was tested, and the stoichiometry N [5] was 2.
“oxidized HapC (treated with diamide or H2O2) (natural protein)” was tested, and the stoichiometry N [6] was 2.
“oxidized HapC(CCS) (treated with diamide or H2O2) (natural protein)” gave a stoichiometry N [7] of 2.
“heterodimer composed of the HapC(CCS) mutant and HapE (complex)” was tested, and the pKd [3] was 7.43.
“heterodimer of HapC with cysteine 74 exchanged to serine and HapE (complex)” gave a HapB binding affinity relative to the HapC/HapE heterodimer [3] of 50%.
Substance “HapC with cysteine 74 exchanged to serine (natural protein)” has a stoichiometry N [8] of 2.
Substance “HapC with cysteine 78 exchanged to serine (natural protein)” has a stoichiometry N [9] of 2.

From publication PMC2831313
